In publication PMC10330843 (Cell, 2023):

Target: recombinant full-length mouse cGAS (mouse, UniProt Q8C6L5 1-507)
Test: co-IP

recombinant full-length mouse cGAS, sequence (Q8C6L5 whole entry): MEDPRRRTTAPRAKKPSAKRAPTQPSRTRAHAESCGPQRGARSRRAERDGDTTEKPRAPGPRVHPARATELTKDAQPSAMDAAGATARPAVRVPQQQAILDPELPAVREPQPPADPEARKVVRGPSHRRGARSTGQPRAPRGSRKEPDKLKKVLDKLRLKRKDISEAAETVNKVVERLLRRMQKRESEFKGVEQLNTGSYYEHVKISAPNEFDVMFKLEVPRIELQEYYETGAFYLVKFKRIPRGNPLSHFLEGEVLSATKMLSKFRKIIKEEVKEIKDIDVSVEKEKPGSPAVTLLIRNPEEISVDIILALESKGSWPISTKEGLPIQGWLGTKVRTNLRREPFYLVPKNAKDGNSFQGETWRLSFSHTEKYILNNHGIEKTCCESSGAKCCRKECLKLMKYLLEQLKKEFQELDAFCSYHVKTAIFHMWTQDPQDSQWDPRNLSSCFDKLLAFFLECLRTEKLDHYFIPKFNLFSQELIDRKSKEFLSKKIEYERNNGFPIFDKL

B1: recombinant full-length mouse ZBP1 (natural protein, UniProt Q9QY24 1-411, looked up)
chain: MAEAPVDLSTGDNLEQKILQVLSDDGGPVKIGQLVKKCQVPKKTLNQVLYRLKKEDRVSSPEPATWSIGGAASGDGAPAIPENSSAQPSLDERILRFLEANGPHRALHIAKALGMTTAKEVNPLLYSMRNKHLLSYDGQTWKIYHSRQEGQDIAHSGVTQESPAIICQHNPVNMICQQGANSHISIANSNAIQIGHGNVIVREKACGEPGPRTSHPLPLAWDASAQDMPPVAHGAQYIYMDKSLLQQVQLGHHNEMSLVGDAGKHPSYSFSDSPPEVSTTTADPGASFNMQTFEPGPHPEGDTVQTVHIKSCFLEDATIGNGNKMTIHLRSKGEVMESGDSEEPKKEDTGTSSEATPPRSCQHTPSDSMLPTSELRAMALGDSSPQTTEPVLREHEVQDIESSQDTGLSKQ
- binding result: binds
